Where a chain is given by its changes, count along the chain named. Values belong to the binder of their own block, whether it stands above or below them.
Legend:
[1] = target: T1, EGFRvIII-Fc fusion antigen (human, UniProt P00533 25-645); test: SPR Biacore T200, EGFRvIII-Fc captured via anti-hu Fc, scFv analyte, 1:1 model;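 also: Multi-cycle kinetics on a CM5 chip in HBS-P+ running buffer, 180 s scFv association then 540 s dissociation, with blank flow cell signals subtracted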
Procedure: Anti-hu Fc IgG CM5-chip was prepared by covalent amine coupling by using the Amine-Coupling-Kit (GE), according to the instructions of the manufacturer. The IgG was diluted in the provided immobilization buffer (10 mM sodium acetate, pH 5.0) to a concentration of 25 μg/ml. For the coupling procedure, the predefined method “Amine” of the Biacore T200 control software was applied. A target level between 5000-10000 RU for all 4 flow cells was reached. The surface of the chip was activated with EDC/NHS before injecting the recombinant protein solutions. Free binding sites on the surface were blocked with ethanolamine. 1×HBS-P+ was selected as a running buffer for the entire coupling procedure.
Flowcell 1 and 3 were blanks. 1×HBS-P+ was used as running buffer for the entire procedure. The scFv antibodies were injected at a flow rate of 30 μL/min for 180 sec over all four flowcells. Signals measured in the flowcell 1 without captured antigen were subtracted from signals in the flowcell 2 to correct the binding curves for background binding. Signals measured in the flowcell 3 without captured antigen were subtracted from signals in the flowcell 4 to correct the binding curves for background binding. After 540 sec dissociation time the chip was regenerated as described below.
The Kinetics of scFv antibodies were determined in MCK (Multi Cycle Kinetic) measurements. For estimation of apparent binding affinities the binding curves were evaluated using the “Kinetic” method included in the Biacore evaluation software. By this method the binding curves are globally fitted by the software using the “Langmuir 1:1 interaction model”.

[2] = target: T2, wild type EGFR expressed on cells (CHO^EGFR, F98^EGFR) (human, UniProt P00533 25-1210); test: flow cytometry on F98^EGFR cells; scFv detected with anti-His followed by FITC-conj. goat anti-mouse IgG
T2 construct: whole, on cells; also called native EGFR; EGFRwt
Procedure: (§1) After a second washing cycle, the cells were incubated with 0.1 mL of 15 μg/mL FITC-conjugated goat anti-mouse IgG antibodies under the same conditions as before. As a control, cells were incubated with the anti-His IgG 13/45/31 followed by the FITC-conjugated goat anti-mouse IgG antibodies without scFvs. The cells were then washed again and resuspended in 0.2 mL of FACS buffer containing 2 μg/mL propidium iodide in order to exclude dead cells. The fluorescence of 1×10⁴ living cells was measured using a Beckman-Coulter FC500 MPL flow cytometer using the MXP software (Beckman-Coulter, Krefeld, Germany) or a Millipore Guava EasyCyte flow cytometer using the Incyte software (Merck Millipore, Schwalbach, Germany). Mean fluorescence intensities of the cell samples were calculated using CXP software (Beckman-Coulter, Krefeld, Germany) or Incyte software (Merck Millipore, Schwalbach, Germany).
(§2) In case of analysis with Beckman-Coulter FC500 MPL flow cytometer 0.5×10⁶ cells/staining and in case of Millipore Guava EasyCyte flow cytometer only 0.25×10⁶ cells/staining were used.

[3] = target: T3, EGFRvIII expressed on cells (CHO^EGFRvIII, F98^EGFRvIII) (UniProt P00533 25-1210); test: flow cytometry on F98^EGFRvIII cells; scFv detected with anti-His followed by FITC-conj. goat anti-mouse IgG, mean fluorescence intensity
T3 construct: whole, on cells; the vIII deletion must be applied; also called deletion mutant EGFRvIII
Procedure: as §1, §2

[4] = target: T3, EGFRvIII expressed on cells …; test: cell-based or functional assay
[5] = target: T1, EGFRvIII-Fc fusion antigen; test: ELISA on coated EGFRvIII-Fc; TandAb detected with Protein L-HRP, Abs(450nm) [EGFRvIII binding]

B1: scFv 477 (scFv, V domains shown)
VH: EVQLVQSGAEVKKPGESLKISCKGSGYSFSSYWIGWVRQMPGKGLEWMGIIYPGDSDTRYSPSFQGQVTISADKSISTAYLQWSSLKASDTAMYYCARLGSSWTNDAFDIWGQGTLVTVSS
VL: SYELTQPPSVSVSPGQTARITCSGDYLPKQYAYWYQQKPGQAPVLVIYKDTERPSGIPERFSGSSSGTTVTLTISGVQAEDEADYYCQSADASGTYYVFGGGTKLTVL
notes: One-chain scFv, His-tagged
- KD improvement factor vs parental scFv Li3G30 [1]: 6 fold
- Kd [1]: 1.3 nM
- kOFF improvement factor vs parental scFv Li3G30 [1]: 0.3 fold
- kON improvement factor vs parental scFv Li3G30 [1]: 18.8 fold
- koff [1]: 0.0038 s⁻¹
- kon [1]: 3e+06 M⁻¹ s⁻¹
- binding result [2]: no binding (tested: about 3300 nM)
- EC50 (read off the curve) [3]: ~2 nM

B2: scFv 476 (scFv, V domains shown)
VH: B1 VH with S30T
VL: B1 VL with Y26N, L27I, K29H, S55A, A92P, S93T, T95A, Y97L
notes: One-chain scFv, His-tagged
- KD improvement factor vs parental scFv Li3G30 [1]: 5 fold
- Kd [1]: 1.56 nM
- kOFF improvement factor vs parental scFv Li3G30 [1]: 1.1 fold
- kON improvement factor vs parental scFv Li3G30 [1]: 4.3 fold
- koff [1]: 0.0011 s⁻¹
- kon [1]: 690000 M⁻¹ s⁻¹
- binding result [2]: no binding (tested: about 3300 nM)
- EC50 (read off the curve) [3]: ~2 nM

B3: scFv 472 (scFv, V domains shown)
VH: B1 VH with S30G, S31Y, D57H
VL: B1 VL with Y26A, A90V, A92S, Y96Q, Y97V
notes: One-chain scFv, His-tagged
- KD improvement factor vs parental scFv Li3G30 [1]: 96.3 fold
- Kd [1]: 0.08 nM
- kOFF improvement factor vs parental scFv Li3G30 [1]: 4 fold
- kON improvement factor vs parental scFv Li3G30 [1]: 23.8 fold
- koff [1]: 0.0003 s⁻¹
- kon [1]: 3.8e+06 M⁻¹ s⁻¹
- binding result [2]: no binding (tested: about 3300 nM)
- EC50 (read off the curve) [3]: ~1 nM

B6: scFv 478 (scFv, V domains shown)
VH: B1 VH with S30N, S56E
VL: B1 VL with Y26A, A90V, A92P, Y97V
notes: One-chain scFv, His-tagged
- KD improvement factor vs parental scFv Li3G30 [1]: 49.6 fold
- Kd [1]: 0.16 nM
- kOFF improvement factor vs parental scFv Li3G30 [1]: 5.2 fold
- kON improvement factor vs parental scFv Li3G30 [1]: 8.8 fold
- koff [1]: 0.00023 s⁻¹
- kon [1]: 1.4e+06 M⁻¹ s⁻¹
- binding result [2]: no binding
- EC50 (read off the curve) [3]: ~2 nM

B7: scFv 471 (scFv, V domains shown)
VH: B1 VH with S30N, D57A, T58N
VL: B1 VL with A90V, A92S, G94H, T95P, Y96S, Y97V
notes: One-chain scFv, His-tagged
- KD improvement factor vs parental scFv Li3G30 [1]: 29.9 fold
- Kd [1]: 0.26 nM
- kOFF improvement factor vs parental scFv Li3G30 [1]: 4.1 fold
- kON improvement factor vs parental scFv Li3G30 [1]: 6.9 fold
- koff [1]: 0.00029 s⁻¹
- kon [1]: 1.1e+06 M⁻¹ s⁻¹
- binding result [2]: no binding (tested: about 3300 nM)
- EC50 (read off the curve) [3]: ~2 nM

B8: scFv 470 (scFv, V domains shown)
VH: B1 VH with S30N
VL: B1 VL with Y26A, P28D, T51S, A90V, A92S, G94E, Y97V
notes: One-chain scFv, His-tagged
- KD improvement factor vs parental scFv Li3G30 [1]: 6.6 fold
- Kd [1]: 1.18 nM
- kOFF improvement factor vs parental scFv Li3G30 [1]: 2.4 fold
- kON improvement factor vs parental scFv Li3G30 [1]: 2.7 fold
- koff [1]: 0.0005 s⁻¹
- kon [1]: 430000 M⁻¹ s⁻¹
- binding result [2]: no binding (tested: about 3300 nM)
- EC50 (read off the curve) [3]: ~2 nM

Second part, led by results:

- KD improvement factor vs parental scFv Li3G30 [1]: 11.6 fold
- Kd [1]: 0.67 nM
- kOFF improvement factor vs parental scFv Li3G30 [1]: 1.5 fold
- kON improvement factor vs parental scFv Li3G30 [1]: 7.5 fold
- koff [1]: 0.0008 s⁻¹
- kon [1]: 1.2e+06 M⁻¹ s⁻¹
- binding result [2]: no binding (tested: about 3300 nM)
- EC50 (read off the curve) [3]: ~2 nM
B4: scFv 473 (scFv, V domains shown)
VH: B1 VH
VL: B1 VL with D25H, Y26A, K29S, A90V, A92S, Y96S, Y97V, V98I
notes: One-chain scFv, His-tagged

- KD improvement factor vs parental scFv Li3G30 [1]: 16.3 fold
- Kd [1]: 0.48 nM
- kOFF improvement factor vs parental scFv Li3G30 [1]: 0.8 fold
- kON improvement factor vs parental scFv Li3G30 [1]: 20.6 fold
- koff [1]: 0.0016 s⁻¹
- kon [1]: 3.3e+06 M⁻¹ s⁻¹
- binding result [2]: no binding (tested: about 3300 nM)
- EC50 (read off the curve) [3]: ~2 nM
B5: scFv 474 (scFv, V domains shown)
VH: B1 VH with S31H, I51T, S56V, S61D
VL: B1 VL with Y26A, Q30T, A92S, Y97L
notes: One-chain scFv, His-tagged

- EC50 (read off the curve) [5]: 1 nM
B9: EGFRvIII/CD3 TandAb with EGFRvIII binding domain ABC469, domain order (i) VL^CD3(v64)-VH^EGFRvIII-VL^EGFRvIII-VH^CD3(v64) (bispecific antibody, part only; not given: CD3 v64 domain and linkers, not shown: small tags and cut ends)
chain, part: EVQLVQSGAEVKKPGESLKISCKGSGYSFNSYWIGWVRQMPGKGLEWMGIIYPGDSDTRYSPSFQGQVTISADKSISTAYLQWSSLKASDTAMYYCARLGSSWTNDAFDIWGQGTLVTVSSLTQPPSYESVSVSPGQTARITCSGDTLPKQYAYWYQQKPGQAPVLVIYKDSERPSGIPERFSGSSSGTTVTLTISGVQAEDEADYYCQSVDVSGTYVVFGGGTKLTVL
- Cytotoxic potency EC50 [4]: 11 nM
- cytotoxicity improvement factor relative to parental TandAb [4]: 2.5 fold
